Reference: publication PMC2172889

Legend:
[1] = molecular target: epidermal growth factor receptor (human (endogenous in MDA-MB-231)) (UniProt P00533); test: flow cytometry on cells
[2] = molecular target: epidermal growth factor receptor (human (endogenous in MDA-MB-231)) (UniProt P00533); test: radioligand binding

recombinant domain III (DIII) of the laminin-5 γ2-chain (domain or fragment)
fluorescence, fold over control, at saturation [1]: 12 fold | IC50 2 (two-site competition, site 2) [2]: 1180 nM
